This assay concerns the target EGFR on HeLa cells (UniProt P00533 25-1210, limits assumed). The assay can be described thus: cell-based or functional assay.

B1: GOMP001_bsAb_021 (bispecific antibody, human IgG1, kappa, L234A L235A)
heavy 1: QVQLVQSGAEVKKPGASVKVSCKASGYTFTSHWMHWVRKAPGQGLEWIGEFNPSNGRTNYNEEFKSKATMTVDTSTNTAYMELSSLRSEDTAVYYCASRDYDYDGRYFDYWGQGTLVTVSSASTKGPSVFPLAPSSKSTSGGTAALGCLVADYFPEPVTVSWNSGALTSGVHTFPAVLQSSGLYSLSSVVTVPSSSLGTQTYICNVNHKPSNTKVDEKVEPKSCDKTHTCPPCPAPEAAGGPSVFLFPPKPKDTLMISRTPEVTCVVVDVSHEDPEVKFNWYVDGVEVHNAKTKPREEQYNSTYRVVSVLTVLHQDWLNGKEYKCKVSNKALPAPIEKTISKAKGQPREPQVYTLPPSREEMTDNQVSLTCLVKGFYPSDIAVEWESNGQPENNYKTTPPVLMSDGSFFLASKLTVDKSRWQQGNVFSCSVMHEALHNHYTQKSLSLSPG
light 1: RIQMTQSPSSLSASVGDRVTITCSASSSVTYMYWYQDKPGKAPKLLIYDTSNLASGVPSRFSGSGSGTDYTFTISSLQPEDIATYYCQQWSSHIFTFGQGTKVEIKRTVAAPSVFIFPPSDKQLKSGTARVVCLLNNFYPREAKVQWKVDNALQSGNSQESVTEQDSKDSTYSLSSTLTLSKADYEKHKVYACEVTHQGLSSPVTKSFNRGEC
heavy 2: QMLLVESGGGVVQPGRSLTLSCAASGFTFRSYGMHWVRYAPGRGLEWVAIIWYDGSTEYYADRVKGRFTISRANSKNMLYLQMNSLRAEDTAVYYCAAFDYTNSFDIWGRGTMVTVSSASTKGPSVFPLAPSSKSTSGGTAALGCLVKDYFPEPVTVSWNSGALTSGVHTFPAVLQSSGLYSLSSVVTVPSSSLGTQTYICNVNHKPSNTKVDKKVEPKSCDKTHTCPPCPAPEAAGGPSVFLFPPKPKDTLMISRTPEVTCVVVDVSHEDPEVKFNWYVDGVEVHNAKTKPREEQYNSTYRVVSVLTVLHQDWLNGKEYKCKVSNKALPAPIEKTISKAKGQPRRPRVYTLPPSREEMTKNQVSLVCLVKGFYPSDIAVEWESNGQPENNYKTTPPVLDSDGSFFLYSVLTVDKSRWQQGNVFSCSVMHEALHNHYTQKSLSLSPG
light 2: DIVVTQTPLSSPVTLGQPASISCRSSQRFVHSDGNTYLSWLQRRPGDPPRLLIYKISNRISGVPDRFSGSGAGTDFKLKISRVEAEDVGIYYCMQATQFPYTFGQGTKLEIKRTVAAPSVFIFPPSDEQLKSGTASVVCLLNNFYPREAKVQWKVDNALQSGNSQESVTEQDSKDSTYSLSSTLTLSKADYEKHKVYACEVTHQGLSSPVTKSFNRGEC
Molecule B1 gave a Max killing % of 25.4%.

B2: GOMP001_bsAb_024 (bispecific antibody, human IgG1, kappa, L234A L235A)
heavy 1: QGQLVESGGGVVQPGRSLRLSCEASGFTFRSYGMHWVRKPPGKGLEWVAIIWYDGGKKYYGDEVKGRFTISRDNPKNTLYLQMNSLRPEDTAVYYCMAYDYSNGFDIWGQGTMVTVSSASTKGPSVFPLAPSSKSTSGGTAALGCLVADYFPEPVTVSWNSGALTSGVHTFPAVLQSSGLYSLSSVVTVPSSSLGTQTYICNVNHKPSNTKVDEKVEPKSCDKTHTCPPCPAPEAAGGPSVFLFPPKPKDTLMISRTPEVTCVVVDVSHEDPEVKFNWYVDGVEVHNAKTKPREEQYNSTYRVVSVLTVLHQDWLNGKEYKCKVSNKALPAPIEKTISKAKGQPREPQVYTLPPSREEMTDNQVSLTCLVKGFYPSDIAVEWESNGQPENNYKTTPPVLMSDGSFFLASKLTVDKSRWQQGNVFSCSVMHEALHNHYTQKSLSLSPG
light 1: RIVMTQTPLSSPVTLGQPASISCRSSQSFVHSDGSTYLSWLQDRPGQPPRLLIYKISNRFSGVPDRFSGRGAGTDFTLKISRVEAEDVGIYYCMQNTQFPYTFGQGTKLEIKRTVAAPSVFIFPPSDKQLKSGTARVVCLLNNFYPREAKVQWKVDNALQSGNSQESVTEQDSKDSTYSLSSTLTLSKADYEKHKVYACEVTHQGLSSPVTKSFNRGEC
heavy 2: QVQLVQSGAEVKKPGASVKVSCKASGYTFTSHWMHWVRYAPGQGLEWIGEFNPSNGRTNYNEKFKSKATMTVDTSTNTAYMELSSLRSEDTAVYYCASRDYDYDGRYFDYWGRGTLVTVSSASTKGPSVFPLAPSSKSTSGGTAALGCLVKDYFPEPVTVSWNSGALTSGVHTFPAVLQSSGLYSLSSVVTVPSSSLGTQTYICNVNHKPSNTKVDKKVEPKSCDKTHTCPPCPAPEAAGGPSVFLFPPKPKDTLMISRTPEVTCVVVDVSHEDPEVKFNWYVDGVEVHNAKTKPREEQYNSTYRVVSVLTVLHQDWLNGKEYKCKVSNKALPAPIEKTISKAKGQPRRPRVYTLPPSREEMTKNQVSLVCLVKGFYPSDIAVEWESNGQPENNYKTTPPVLDSDGSFFLYSVLTVDKSRWQQGNVFSCSVMHEALHNHYTQKSLSLSPG
light 2: DIQMTQSPSSLSASVGDRVTITCSASSSVTYMYWYQRKPGDAPKLLIYDTSNLASGVPSRFSGSGSGTDYTFTISSLQPEDIATYYCQQWSSHIFTFGQGTKVEIKRTVAAPSVFIFPPSDEQLKSGTASVVCLLNNFYPREAKVQWKVDNALQSGNSQESVTEQDSKDSTYSLSSTLTLSKADYEKHKVYACEVTHQGLSSPVTKSFNRGEC
Take B2: the Max killing % was 72.5% and the “X… HeLa EC50” value was determined as 0.895 nM.

B3: GOMP001_bsAb_023 (bispecific antibody, human IgG1, kappa, L234A L235A)
heavy 1: QVQLVQSGAEVKKPGASVKVSCKASGYTFTSHWMHWVRKAPGQGLEWIGEFNPSNGRTNYNEEFKSKATMTVDTSTNTAYMELSSLRSEDTAVYYCASRDYDYDGRYFDYWGQGTLVTVSSASTKGPSVFPLAPSSKSTSGGTAALGCLVADYFPEPVTVSWNSGALTSGVHTFPAVLQSSGLYSLSSVVTVPSSSLGTQTYICNVNHKPSNTKVDEKVEPKSCDKTHTCPPCPAPEAAGGPSVFLFPPKPKDTLMISRTPEVTCVVVDVSHEDPEVKFNWYVDGVEVHNAKTKPREEQYNSTYRVVSVLTVLHQDWLNGKEYKCKVSNKALPAPIEKTISKAKGQPREPQVYTLPPSREEMTDNQVSLTCLVKGFYPSDIAVEWESNGQPENNYKTTPPVLMSDGSFFLASKLTVDKSRWQQGNVFSCSVMHEALHNHYTQKSLSLSPG
light 1: RIQMTQSPSSLSASVGDRVTITCSASSSVTYMYWYQDKPGKAPKLLIYDTSNLASGVPSRFSGSGSGTDYTFTISSLQPEDIATYYCQQWSSHIFTFGQGTKVEIKRTVAAPSVFIFPPSDKQLKSGTARVVCLLNNFYPREAKVQWKVDNALQSGNSQESVTEQDSKDSTYSLSSTLTLSKADYEKHKVYACEVTHQGLSSPVTKSFNRGEC
heavy 2: QGQLVESGGGVVQPGRSLRLSCEASGFTFRSYGMHWVRYPPGKGLEWVAIIWYDGGKKYYGDRVKGRFTISRDNPKNTLYLQMNSLRPEDTAVYYCMAYDYSNGFDIWGRGTMVTVSSASTKGPSVFPLAPSSKSTSGGTAALGCLVKDYFPEPVTVSWNSGALTSGVHTFPAVLQSSGLYSLSSVVTVPSSSLGTQTYICNVNHKPSNTKVDKKVEPKSCDKTHTCPPCPAPEAAGGPSVFLFPPKPKDTLMISRTPEVTCVVVDVSHEDPEVKFNWYVDGVEVHNAKTKPREEQYNSTYRVVSVLTVLHQDWLNGKEYKCKVSNKALPAPIEKTISKAKGQPRRPRVYTLPPSREEMTKNQVSLVCLVKGFYPSDIAVEWESNGQPENNYKTTPPVLDSDGSFFLYSVLTVDKSRWQQGNVFSCSVMHEALHNHYTQKSLSLSPG
light 2: DIVMTQTPLSSPVTLGQPASISCRSSQSFVHSDGSTYLSWLQRRPGDPPRLLIYKISNRFSGVPDRFSGRGAGTDFTLKISRVEAEDVGIYYCMQNTQFPYTFGQGTKLEIKRTVAAPSVFIFPPSDEQLKSGTASVVCLLNNFYPREAKVQWKVDNALQSGNSQESVTEQDSKDSTYSLSSTLTLSKADYEKHKVYACEVTHQGLSSPVTKSFNRGEC
B3: the Max killing % amounted to 27.5%.

B4: GOMP001_bsAb_022 (bispecific antibody, human IgG1, kappa, L234A L235A)
heavy 1: QMLLVESGGGVVQPGRSLTLSCAASGFTFRSYGMHWVRKAPGRGLEWVAIIWYDGSTEYYADEVKGRFTISRANSKNMLYLQMNSLRAEDTAVYYCAAFDYTNSFDIWGQGTMVTVSSASTKGPSVFPLAPSSKSTSGGTAALGCLVADYFPEPVTVSWNSGALTSGVHTFPAVLQSSGLYSLSSVVTVPSSSLGTQTYICNVNHKPSNTKVDEKVEPKSCDKTHTCPPCPAPEAAGGPSVFLFPPKPKDTLMISRTPEVTCVVVDVSHEDPEVKFNWYVDGVEVHNAKTKPREEQYNSTYRVVSVLTVLHQDWLNGKEYKCKVSNKALPAPIEKTISKAKGQPREPQVYTLPPSREEMTDNQVSLTCLVKGFYPSDIAVEWESNGQPENNYKTTPPVLMSDGSFFLASKLTVDKSRWQQGNVFSCSVMHEALHNHYTQKSLSLSPG
light 1: RIVVTQTPLSSPVTLGQPASISCRSSQRFVHSDGNTYLSWLQDRPGQPPRLLIYKISNRISGVPDRFSGSGAGTDFKLKISRVEAEDVGIYYCMQATQFPYTFGQGTKLEIKRTVAAPSVFIFPPSDKQLKSGTARVVCLLNNFYPREAKVQWKVDNALQSGNSQESVTEQDSKDSTYSLSSTLTLSKADYEKHKVYACEVTHQGLSSPVTKSFNRGEC
heavy 2: QVQLVQSGAEVKKPGASVKVSCKASGYTFTSHWMHWVRYAPGQGLEWIGEFNPSNGRTNYNEKFKSKATMTVDTSTNTAYMELSSLRSEDTAVYYCASRDYDYDGRYFDYWGRGTLVTVSSASTKGPSVFPLAPSSKSTSGGTAALGCLVKDYFPEPVTVSWNSGALTSGVHTFPAVLQSSGLYSLSSVVTVPSSSLGTQTYICNVNHKPSNTKVDKKVEPKSCDKTHTCPPCPAPEAAGGPSVFLFPPKPKDTLMISRTPEVTCVVVDVSHEDPEVKFNWYVDGVEVHNAKTKPREEQYNSTYRVVSVLTVLHQDWLNGKEYKCKVSNKALPAPIEKTISKAKGQPRRPRVYTLPPSREEMTKNQVSLVCLVKGFYPSDIAVEWESNGQPENNYKTTPPVLDSDGSFFLYSVLTVDKSRWQQGNVFSCSVMHEALHNHYTQKSLSLSPG
light 2: DIQMTQSPSSLSASVGDRVTITCSASSSVTYMYWYQRKPGDAPKLLIYDTSNLASGVPSRFSGSGSGTDYTFTISSLQPEDIATYYCQQWSSHIFTFGQGTKVEIKRTVAAPSVFIFPPSDEQLKSGTASVVCLLNNFYPREAKVQWKVDNALQSGNSQESVTEQDSKDSTYSLSSTLTLSKADYEKHKVYACEVTHQGLSSPVTKSFNRGEC
For B4, the Max killing % stood at 60.6% and the “X… HeLa EC50” value was 0.478 nM.

For the origin of these results see US20230295310A1 (ABCELLERA BIOLOGICS, published 2023).
